One block for each binder: values may come before it.
Assays:
human CD105 = molecular target: T1, human CD105 (human, UniProt P17813 26-658); test: flow cytometry of primary human HSCs treated with Fab-conjugated KC3 LNPs; DiI fluorescence as measure of LNP binding
T1 construct: whole, on cells; The target is presented on primary human HSCs; also called HuCD105; endoglin
T1 sequence (looked up): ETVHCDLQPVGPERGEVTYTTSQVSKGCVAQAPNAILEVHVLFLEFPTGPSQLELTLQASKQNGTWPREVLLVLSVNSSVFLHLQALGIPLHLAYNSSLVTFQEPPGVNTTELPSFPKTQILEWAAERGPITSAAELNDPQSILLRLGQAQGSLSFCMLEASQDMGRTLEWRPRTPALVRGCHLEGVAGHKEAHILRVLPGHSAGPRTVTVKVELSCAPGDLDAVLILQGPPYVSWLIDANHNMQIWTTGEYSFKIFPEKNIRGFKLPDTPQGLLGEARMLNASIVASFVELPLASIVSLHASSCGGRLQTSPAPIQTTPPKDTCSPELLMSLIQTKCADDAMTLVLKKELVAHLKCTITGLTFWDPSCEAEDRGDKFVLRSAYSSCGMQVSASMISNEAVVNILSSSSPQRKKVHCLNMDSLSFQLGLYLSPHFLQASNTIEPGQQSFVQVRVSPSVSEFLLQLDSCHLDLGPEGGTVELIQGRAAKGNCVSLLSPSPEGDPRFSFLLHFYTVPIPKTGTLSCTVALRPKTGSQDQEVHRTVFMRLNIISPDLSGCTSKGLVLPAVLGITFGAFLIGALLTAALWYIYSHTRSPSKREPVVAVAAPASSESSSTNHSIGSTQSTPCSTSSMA
Text: (§1) For conjugation with full-length antibodies, the LNPs were fused with a streptavidin moiety, and the conjugated full-size antibodies were tagged with biotin. Specifically, lysine groups on the streptavidin were reacted with Traut's reagent to covalently attach thiol groups. The thiolated streptavidin was then conjugated to DSPE-PEG(2k)-maleimide via covalent coupling between the maleimide group and the thiol groups attached to the streptavidin. The streptavidin-fused lipid was then reacted with the biotinylated antibody. Finally, the lipid-streptavidin-antibody conjugate was inserted into the LNP by incubation at 60° C. for 1 hour. The LNPs also incorporated a fluorescent lipid dye,′,1′-Dioctadecyl-3,′,3′,3′-Tetramethylindocarbocyanine-5,5′-Disulfonic Acid (DiIC(18)5-DS). The GFP mRNA was used to measure transfection, as the mRNA must enter the cell and escape the endosome to be transcribed into protein, allowing for fluorescence. The DiIC(18)5-DS was used as a measure of LNP targeting because the cells will have DiI fluorescence so long as the LNPs are capable of binding to the HSCs. Therefore, GFP expression provided a measure of LNP transfection while DiI positive events were representative of Fabs that target H—SCs. […] The HSCs were incubated with the LNPs for 24 and 72 hours, after which the GFP fluorescence and DiI fluorescence were measured using flow cytometry.

human CD117 = molecular target: T2, human CD117 (human, UniProt P10721 26-976); test: as above
T2 construct: whole, on cells; The target is presented on primary human HSCs, either in vitro or engrafted in NSG mice; No recombinant CD117 was used; also called HuCD117; c-kit
Text: as §1

T2 sequence (P10721 26-976): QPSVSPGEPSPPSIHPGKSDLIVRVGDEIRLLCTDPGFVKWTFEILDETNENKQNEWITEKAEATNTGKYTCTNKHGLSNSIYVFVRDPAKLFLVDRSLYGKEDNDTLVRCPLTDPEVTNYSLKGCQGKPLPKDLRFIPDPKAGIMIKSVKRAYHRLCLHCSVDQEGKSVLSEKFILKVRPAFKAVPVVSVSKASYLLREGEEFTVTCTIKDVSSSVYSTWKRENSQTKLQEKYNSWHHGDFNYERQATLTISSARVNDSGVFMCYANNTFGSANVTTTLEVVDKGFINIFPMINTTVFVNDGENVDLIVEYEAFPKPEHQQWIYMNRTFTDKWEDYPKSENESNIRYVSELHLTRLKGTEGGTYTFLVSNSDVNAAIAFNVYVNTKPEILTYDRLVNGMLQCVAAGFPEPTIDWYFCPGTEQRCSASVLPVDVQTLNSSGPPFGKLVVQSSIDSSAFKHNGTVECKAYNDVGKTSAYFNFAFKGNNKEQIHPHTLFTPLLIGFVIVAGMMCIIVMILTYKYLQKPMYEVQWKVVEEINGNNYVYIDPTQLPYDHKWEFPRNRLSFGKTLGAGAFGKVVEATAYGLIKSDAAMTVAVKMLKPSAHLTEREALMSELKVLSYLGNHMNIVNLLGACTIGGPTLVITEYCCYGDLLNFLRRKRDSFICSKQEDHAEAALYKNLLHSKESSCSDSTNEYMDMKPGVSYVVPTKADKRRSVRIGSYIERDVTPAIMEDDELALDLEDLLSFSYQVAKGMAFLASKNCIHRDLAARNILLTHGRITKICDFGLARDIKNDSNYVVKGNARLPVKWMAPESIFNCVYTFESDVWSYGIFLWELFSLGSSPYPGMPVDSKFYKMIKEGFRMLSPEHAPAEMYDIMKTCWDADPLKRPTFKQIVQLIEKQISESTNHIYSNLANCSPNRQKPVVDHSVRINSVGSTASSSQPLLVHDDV

binding result (human CD105): binds
B1: anti-HuCD105 Ab3 Fab bDS (Fab, V domains shown)
VH: EVKLEESGGGLVQPGGSMKLSCAASGFTFSDAWMDWVRQSPEKGLEWVAEIRSKASNHATYYAESVKGRFTISRDDSKSSVYLQMNSLRAEDTGIYYCTRWRRFFDSWGQGTTLTVSS
VL: QIVLSQSPAILSASPGEKVTMTCRASSSVSYMHWYQQKPGSSPKPWIYATSNLASGVPVRFSGSGSGTSYSLTISRVEAEDAATYYCQQWSSNPLTFGAGTKLELKR
modifications: C-terminal cysteine in the heavy chain covalently coupled to DSPE-PEG(2k)-maleimide (lipid conjugate inserted into the LNP)
notes: Tested only as a lipid-Fab conjugate on the surface of LNPs

binding result (human CD117): binds
B2: anti-HuCD117 Ab2 Fab bDS (Fab, V domains shown)
VH: EVQLVESGGGLVQPGGSLRLSCAASGFTFSDADMDWVRQAPGKGLEWVGRTRNKAGSYTTEYAASVKGRFTISRDDSKNSLYLQMNSLKTEDTAVYYCAREPKYWIDFDLWGRGTLVTVSS
VL: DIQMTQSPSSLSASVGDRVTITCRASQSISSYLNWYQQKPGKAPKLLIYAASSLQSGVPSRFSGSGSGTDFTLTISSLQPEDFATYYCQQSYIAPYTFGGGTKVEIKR
modifications: C-terminal cysteine in the heavy chain covalently coupled to DSPE-PEG(2k)-maleimide (lipid conjugate inserted into the LNP)
notes: as for B1
